For experiment [1], the target named is dual-specificity phosphatase 3 (DUSP3), wild type (UniProt P51452). The experiment can be described thus: SPR; Biacore T100; DUSP3-WT or DUSP3-C124S immobilised on CM5 sensorchip (200 RU); analytes 12.5 to 1,000 nM; 25°C; HBS-EP buffer; association 120 s, dissociation 300 s, 10 μl/min. (SPR reads the build-up and loss of mass on a sensor chip optically.)
The target in experiment [2] is DUSP3-C124S mutant (phosphatase dead) (UniProt P51452). The experiment can be described thus: SPR; Biacore T100; DUSP3-WT or DUSP3-C124S immobilised on CM5 sensorchip (200 RU); protein analytes 12.5-1,000 nM; kinetic assays at 25°C, HBS-EP buffer, 10 μl/min, 120 s association, 300 s dissociation; three independent experiments.
Experiment [3] has as its target DUSP3-WT (dual-specificity phosphatase 3) (UniProt P51452). Described as above.

Chain of DUSP3-C124S mutant (phosphatase dead) (P51452 whole entry C124S): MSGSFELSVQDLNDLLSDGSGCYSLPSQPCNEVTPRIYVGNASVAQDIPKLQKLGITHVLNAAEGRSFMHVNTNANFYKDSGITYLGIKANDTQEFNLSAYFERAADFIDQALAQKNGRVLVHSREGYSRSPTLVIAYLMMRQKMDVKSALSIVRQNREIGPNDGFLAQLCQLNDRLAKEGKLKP
Chain of DUSP3-WT (dual-specificity phosphatase 3) (P51452 whole entry): as the sequence (P51452 whole entry C124S) above, with S124C counted along it
Chain of dual-specificity phosphatase 3 (DUSP3), wild type (P51452 whole entry): as the sequence (P51452 whole entry C124S) above, with S124C counted along it

In experiment [1], “nucleophosmin (NPM) full length (natural protein)” gave a fold higher affinity than ERK1 of 10 fold and a fold higher affinity than NPM 9-122 of 17 fold.

As for “truncated N-terminal of NPM 9-122 (domain or fragment)”, the Kd (in general, the free concentration of one partner at which half of the binding sites on the other are occupied at equilibrium, for simple one-to-one binding) in experiment [2] is 393 nM; in experiment [3], 294 nM.

“NPM full length (nucleophosmin) (natural protein)”: the Kd in experiment [2] was found to be 11.5 nM; in experiment [3] it was 17.2 nM.

For the origin of these results see article PMC7991746.
